Experimental findings from patent publication WO2021102332A1 (dated 2021) are described below.

In assay [1] the target is T1, LRRC15 (leucine-rich repeat-containing protein 15) (human, UniProt Q8TF66 22-538, limits assumed).
T1 construct: The KD sentences say only 'LRRC15'; also called human LRRC15
T1 sequence (looked up): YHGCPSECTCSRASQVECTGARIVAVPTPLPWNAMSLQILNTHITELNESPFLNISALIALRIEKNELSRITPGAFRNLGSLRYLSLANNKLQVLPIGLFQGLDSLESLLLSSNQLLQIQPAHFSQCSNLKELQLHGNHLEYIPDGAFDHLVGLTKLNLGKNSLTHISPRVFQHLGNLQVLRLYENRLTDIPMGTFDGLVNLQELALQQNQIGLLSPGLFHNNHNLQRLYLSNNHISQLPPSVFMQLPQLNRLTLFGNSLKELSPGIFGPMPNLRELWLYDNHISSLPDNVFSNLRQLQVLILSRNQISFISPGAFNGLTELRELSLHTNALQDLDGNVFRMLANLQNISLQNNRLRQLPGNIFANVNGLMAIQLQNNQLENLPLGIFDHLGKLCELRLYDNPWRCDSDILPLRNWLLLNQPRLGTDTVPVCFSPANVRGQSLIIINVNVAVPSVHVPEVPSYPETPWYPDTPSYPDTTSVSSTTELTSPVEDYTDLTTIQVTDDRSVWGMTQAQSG
In words: binding analysis (koff and/or KD) of mAb expressed in CHO cells; method not named.

For assay [2], the target named is T1, LRRC15 (leucine-rich repeat-containing …). In words: binding analysis (koff and/or KD); method not named.

B1: hzJ66 VHv2 (M102L) / hzJ66 VLv1 (antibody, V domains shown)
VH: QVQLVQSGAEVKKPGASVKVSCKASGYTFTNYWIGWVRQAPGQGLEWMGDIYPRSGYTNYNEKFKGRVTMTRDTSTSTVYMELSSLRSEDTAVYYCARSGGLYYFDYWGQGTTVTVSS
VL: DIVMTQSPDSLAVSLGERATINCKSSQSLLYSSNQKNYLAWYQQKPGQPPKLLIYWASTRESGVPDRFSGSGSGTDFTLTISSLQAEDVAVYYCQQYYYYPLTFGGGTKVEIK
notes: also called printed as heavy chain variant hzJ66 VLv2 with light chain hzJ66 VHv1
In turn, B1 had an equilibrium dissociation constant (Kd) in assay [1] of less than 0.001 nM.

B2: hzJ66 VHv1 / hzJ66 VLv1 (antibody, V domains shown)
VH: QVQLVQSGAEVKKPGASVKVSCKASGYTFTNYWIGWVRQAPGQGLEWMGDIYPRSGYTNYNEKFKGRVTMTRDTSTSTVYMELSSLRSEDTAVYYCARSGGMYYFDYWGQGTTVTVSS
VL: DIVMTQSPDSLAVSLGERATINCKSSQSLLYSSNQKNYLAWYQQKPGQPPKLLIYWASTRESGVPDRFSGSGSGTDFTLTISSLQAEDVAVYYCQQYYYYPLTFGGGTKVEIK
notes: The KD sentence says only 'the parent humanized ... antibody'; also called parent humanized antibody (J66)
In turn, B2 had a Kd in assay [2] of less than 0.001 nM.

B3: hzJ66 VHv2 (M102L) / hzJ66 VLv1.1 (N22S) (antibody, V domains shown)
VH: QVQLVQSGAEVKKPGASVKVSCKASGYTFTNYWIGWVRQAPGQGLEWMGDIYPRSGYTNYNEKFKGRVTMTRDTSTSTVYMELSSLRSEDTAVYYCARSGGLYYFDYWGQGTTVTVSS
VL: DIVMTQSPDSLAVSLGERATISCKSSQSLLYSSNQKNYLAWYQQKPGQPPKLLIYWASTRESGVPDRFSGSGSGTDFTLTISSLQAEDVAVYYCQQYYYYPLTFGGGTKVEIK
notes: also called printed as heavy chain variant hzJ66 VLv2 with light chain hzJ66 v1.1
In assay [1], B3 had a Kd of less than 0.001 nM.

B4: hzK713 VHv1 / hzK713 VLv1 (antibody, V domains shown)
VH: QVQLVQSGAEVKKPGASVKVSCKASGYTFTDYYMNWVRQAPGQRLEWMGRVSPSNGGTNYNQKFRGRVTITRDTSASTAYMELSSLRSEDTAVYYCARRGAGYSYYAMDYWGQGTTVTVSS
VL: DIVMTQSPDSLAVSLGERATINCRASESVDSYGNSLMYWYQQKPGQPPKLLIYLASNLESGVPDRFSGSGSGTDFTLTISSLQAEDVAVYYCQQNNEDPLTFGGGTKVEIK
notes: Expressed in CHO cells; also called parent antibody comprising hzK713 VLv1 in combination with heavy chain hzK713 VHv1
Regarding B4, the Kd in assay [1] amounted to 0.208 nM.

B5: hzK713 VHv4 (G56A) / hzK713 VLv1 (antibody, V domains shown)
VH: QVQLVQSGAEVKKPGASVKVSCKASGYTFTDYYMNWVRQAPGQRLEWMGRVSPSNAGTNYNQKFRGRVTITRDTSASTAYMELSSLRSEDTAVYYCARRGAGYSYYAMDYWGQGTTVTVSS
VL: DIVMTQSPDSLAVSLGERATINCRASESVDSYGNSLMYWYQQKPGQPPKLLIYLASNLESGVPDRFSGSGSGTDFTLTISSLQAEDVAVYYCQQNNEDPLTFGGGTKVEIK
notes: The KD sentence prints 'hzJ48 VHv2-v4', read as hzK713 VHv2-v4; also called printed in the KD sentence as hzJ48 VHv4 with hzK713 VLv1
For B5, in assay [1], the affinity, expressed as Kd, was 0.334 nM.

B6: hzK713 VHv2 (N55Q) / hzK713 VLv1 (antibody, V domains shown)
VH: QVQLVQSGAEVKKPGASVKVSCKASGYTFTDYYMNWVRQAPGQRLEWMGRVSPSQGGTNYNQKFRGRVTITRDTSASTAYMELSSLRSEDTAVYYCARRGAGYSYYAMDYWGQGTTVTVSS
VL: DIVMTQSPDSLAVSLGERATINCRASESVDSYGNSLMYWYQQKPGQPPKLLIYLASNLESGVPDRFSGSGSGTDFTLTISSLQAEDVAVYYCQQNNEDPLTFGGGTKVEIK
notes: The KD sentence prints 'hzJ48 VHv2-v4', read as hzK713 VHv2-v4; also called printed in the KD sentence as hzJ48 VHv2 with hzK713 VLv1
Regarding B6, binding in assay [1] was characterised by a dissociation constant (Kd) of 0.307 nM.

B7: hzK713 VHv3 (N55S) / hzK713 VLv1 (antibody, V domains shown)
VH: QVQLVQSGAEVKKPGASVKVSCKASGYTFTDYYMNWVRQAPGQRLEWMGRVSPSSGGTNYNQKFRGRVTITRDTSASTAYMELSSLRSEDTAVYYCARRGAGYSYYAMDYWGQGTTVTVSS
VL: DIVMTQSPDSLAVSLGERATINCRASESVDSYGNSLMYWYQQKPGQPPKLLIYLASNLESGVPDRFSGSGSGTDFTLTISSLQAEDVAVYYCQQNNEDPLTFGGGTKVEIK
notes: The KD sentence prints 'hzJ48 VHv2-v4', read as hzK713 VHv2-v4; also called printed in the KD sentence as hzJ48 VHv3 with hzK713 VLv1
In assay [1], B7 registered a Kd of 0.212 nM.

B8: hzF36 VHv6.2 (D54Q) / hzF36 VLv1 (antibody, V domains shown)
VH: QVQLVQSGAEVKKPGASVKVSCKASGYTFTSFVIHWVRQAPGQGLEWMGYIYNQGTKYNERFRGRATLTSDKSTSTVYMELSSLRSEDTAVYYCARDYYFDYWGQGTLVTVSS
VL: DIVMTQSPDSLAVSLGERATINCRASESVDYYGISFMNWYQQKPGQPPKLLIYAASNQGSGVPDRFSGSGSGTDFTLTISSLQAEDVAVYYCQQSKEVPYTFGGGTKVEIK
B8 registered a Kd in assay [1] of 0.34 nM.

B9: hzF36 VHv6 / hzF36 VLv1.1 (M4L) (antibody, V domains shown)
VH: QVQLVQSGAEVKKPGASVKVSCKASGYTFTSFVIHWVRQAPGQGLEWMGYIYNDGTKYNERFRGRATLTSDKSTSTVYMELSSLRSEDTAVYYCARDYYFDYWGQGTLVTVSS
VL: DIVLTQSPDSLAVSLGERATINCRASESVDYYGISFMNWYQQKPGQPPKLLIYAASNQGSGVPDRFSGSGSGTDFTLTISSLQAEDVAVYYCQQSKEVPYTFGGGTKVEIK
notes: also called parent heavy chain hzF36 VHv6 in combination with light chain hzF36 VLv1.1
In assay [1], B9 gave a Kd of 0.33 nM. This Kd and that of the molecule before are within 1.5-fold of each other.

B10: hzF36 VHv6.4 (G55A) / hzF36 VLv1 (antibody, V domains shown)
VH: QVQLVQSGAEVKKPGASVKVSCKASGYTFTSFVIHWVRQAPGQGLEWMGYIYNDATKYNERFRGRATLTSDKSTSTVYMELSSLRSEDTAVYYCARDYYFDYWGQGTLVTVSS
VL: DIVMTQSPDSLAVSLGERATINCRASESVDYYGISFMNWYQQKPGQPPKLLIYAASNQGSGVPDRFSGSGSGTDFTLTISSLQAEDVAVYYCQQSKEVPYTFGGGTKVEIK
As for B10, in assay [1], binding was put at a Kd of 0.32 nM.

B11: mAb J66 (mouse) (antibody, V domains shown)
VH: QVQMKESGTELVRPGTSVKMSCKAAGYTFTNYWIGWVKQRPGHGPEWIGDIYPRSGYTNYNEKFKGKATLTADTSSSTAYMQLSSLTSEDSTIYFCARSGGMYYFDYWGQGTTLTVSS
VL: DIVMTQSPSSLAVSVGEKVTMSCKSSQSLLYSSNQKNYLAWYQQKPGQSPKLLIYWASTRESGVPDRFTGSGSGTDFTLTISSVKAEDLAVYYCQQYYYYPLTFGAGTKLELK
notes: From hybridomas of immunized mice; also called parent mouse antibody; Bin A2
On to B11, for which the Kd in assay [2] was less than 0.001 nM.

B12: hzJ48 VHv3 / hzJ48 VLv1.1 (N92S) (antibody, V domains shown)
VH: QVQLVQSGAEVKKPGASVKVSCKASGYTFTDYYINWVRQAPGQGLEWMGWIYPGSGNTKYAQKFQGRVTMTRDTSTSTVYMELSSLRSEDTAVYYCARWGYGAYFTYWGQGTLVTVSS
VL: DIQMTQSPSSLSASVGDRVTITCKASQNVGINVAWYQQKPGKAPKLLIYSASYRSSGVPSRFSGSGSGTDFTLTISSLQPEDFATYYCQQYSSFPYTFGGGTKVEIK
notes: Human IgG1 or IgG1null and human kappa constant regions
As for B12, the Kd in assay [1] was determined as 1.7 nM.

B13: hzJ48 VHv3 / hzJ48 VLv1.3 (S93A) (antibody, V domains shown)
VH: QVQLVQSGAEVKKPGASVKVSCKASGYTFTDYYINWVRQAPGQGLEWMGWIYPGSGNTKYAQKFQGRVTMTRDTSTSTVYMELSSLRSEDTAVYYCARWGYGAYFTYWGQGTLVTVSS
VL: DIQMTQSPSSLSASVGDRVTITCKASQNVGINVAWYQQKPGKAPKLLIYSASYRSSGVPSRFSGSGSGTDFTLTISSLQPEDFATYYCQQYNAFPYTFGGGTKVEIK
notes: as for B12
In assay [1], B13 displayed a Kd of 0.6 nM. This Kd lies about 2.8-fold lower than the previous one.

B14: hzJ48 VHv3 / hzJ48 VLv1.2 (N92Q) (antibody, V domains shown)
VH: QVQLVQSGAEVKKPGASVKVSCKASGYTFTDYYINWVRQAPGQGLEWMGWIYPGSGNTKYAQKFQGRVTMTRDTSTSTVYMELSSLRSEDTAVYYCARWGYGAYFTYWGQGTLVTVSS
VL: DIQMTQSPSSLSASVGDRVTITCKASQNVGINVAWYQQKPGKAPKLLIYSASYRSSGVPSRFSGSGSGTDFTLTISSLQPEDFATYYCQQYQSFPYTFGGGTKVEIK
notes: as for B12
On to B14, for which the Kd in assay [1] was 1.6 nM.
